Measurements from patent US20150344570A1 (published 2015).

T1: FcγRIIb extracellular domain with C-terminal His tag (human, UniProt P31994 43-217)
T1 construct: extracellular domain; soluble analyte in Biacore; also called FcgRIIb; not shown: His tag at the C terminus
T1 sequence (looked up): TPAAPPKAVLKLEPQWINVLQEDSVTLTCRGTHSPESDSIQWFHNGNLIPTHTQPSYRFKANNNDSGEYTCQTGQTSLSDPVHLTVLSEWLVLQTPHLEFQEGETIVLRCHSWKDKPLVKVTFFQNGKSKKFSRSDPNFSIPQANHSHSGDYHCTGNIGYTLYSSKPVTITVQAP


Key:
FcγRIa = molecular target: T2, FcγRIa (human, UniProt P12314 16-292); experiment: SPR (Biacore); Ho Ab vs HoCon Ab GpH7-B3/GpL16-k0
T2 construct: extracellular domain; Soluble extracellular domain expressed in FreeStyle293 cells, used as analyte in Biacore; also called FcgRI; 1a; not shown: His tag attached to the C terminus
T2 sequence (P12314 16-292): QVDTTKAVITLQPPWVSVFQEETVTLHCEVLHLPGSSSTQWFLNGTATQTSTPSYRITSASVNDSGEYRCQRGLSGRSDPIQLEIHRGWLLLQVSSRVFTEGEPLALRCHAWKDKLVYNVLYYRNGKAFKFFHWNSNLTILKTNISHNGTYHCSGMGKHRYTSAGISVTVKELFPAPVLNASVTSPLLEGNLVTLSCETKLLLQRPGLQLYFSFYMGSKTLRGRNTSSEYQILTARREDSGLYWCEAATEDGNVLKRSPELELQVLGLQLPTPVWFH
Description: Analysis of interaction between objective antibody and the FcγR was carried out using Biacore T100 (GE Healthcare). HBS-EP+ (GE Healthcare) was used as the running buffer, and the measurement temperature was set to 25° C. Chips produced by immobilizing the antigen peptide by the amine coupling method to a Series S Sencor Chip CM5 (GE Healthcare), or alternatively, chips produced by allowing preliminarily biotinylated antigen peptides to interact with and immobilize onto a Series S Sensor Chip SA (certified) (GE Healthcare) were used. Antibodies of interest were captured onto an antigen peptide-immobilized chip, and allowed to interact to each FcγR diluted with running buffer. To regenerate and repeatedly use the chip, the antibodies captured on the chip were washed off by reacting 10 mM glycine-HCl, pH 1.5.

[1] = molecular target: T3, FcγRIa extracellular domain with C-terminal His tag (human, UniProt P12314 16-292); experiment: SPR, binding relative to GpH7-A5/GpH7-B3/GpL16-k0 = 100
T3 construct: extracellular domain; soluble analyte in Biacore; also called FcgRI; not shown: His tag at the C terminus
T3 sequence (P12314 16-292): as above

[2] = molecular target: T1, FcγRIIb extracellular domain with …; experiment: as above

| Binder | Ho/Con_1a (FcγRIa) | He/Con_1a [1] | He/Con_2b [2] |
| --- | --- | --- | --- |
| GpH7-B3 variant P271_07I/GpL16-k0 (antibody, human IgG1, kappa, also called Ho Ab P271_07I) heavy: not shown light: DIVMTQSPLSLPVTPGEPASISCQASESLVHSNRNTYLHWYLQKPGQSPQLLIYKVSNRFSGVPDRFSGSGSGTDFTLKISRVEAEDVGVYYCSQNTHVPPTFGQGTKVEIERTVAAPSVFIFPPSDEQLKSGTASVVCLLNNFYPREAKVQWKVDNALQSGNSQESVTEQDSKDSTYSLSSTLTLSKADYEKHKVYACEVTHQGLSSPVTKSFNRGEC | 102 relative binding, control = 100 |  |  |
| GpH7-B3 variant P271_11K/GpL16-k0 (antibody, human IgG1, kappa, also called Ho Ab P271_11K) heavy: not shown light: DIVMTQSPLSLPVTPGEPASISCQASESLVHSNRNTYLHWYLQKPGQSPQLLIYKVSNRFSGVPDRFSGSGSGTDFTLKISRVEAEDVGVYYCSQNTHVPPTFGQGTKVEIERTVAAPSVFIFPPSDEQLKSGTASVVCLLNNFYPREAKVQWKVDNALQSGNSQESVTEQDSKDSTYSLSSTLTLSKADYEKHKVYACEVTHQGLSSPVTKSFNRGEC | 101 relative binding, control = 100 |  |  |
| GpH7-A5/GpH7-B3 variant T335_05P/GpL16-k0 (antibody, human IgG1, kappa, change in the GpH7-B3 H chain only; also called He Ab) heavy 1: not shown heavy 2: not shown light: DIVMTQSPLSLPVTPGEPASISCQASESLVHSNRNTYLHWYLQKPGQSPQLLIYKVSNRFSGVPDRFSGSGSGTDFTLKISRVEAEDVGVYYCSQNTHVPPTFGQGTKVEIERTVAAPSVFIFPPSDEQLKSGTASVVCLLNNFYPREAKVQWKVDNALQSGNSQESVTEQDSKDSTYSLSSTLTLSKADYEKHKVYACEVTHQGLSSPVTKSFNRGEC |  | 106 % of control | 99.9 % of control |
| GpH7-A5/GpH7-B3 variant S324_16H/GpL16-k0 (antibody, human IgG1, kappa, change in the GpH7-B3 H chain only; also called He Ab) heavy 1: not shown heavy 2: not shown light: DIVMTQSPLSLPVTPGEPASISCQASESLVHSNRNTYLHWYLQKPGQSPQLLIYKVSNRFSGVPDRFSGSGSGTDFTLKISRVEAEDVGVYYCSQNTHVPPTFGQGTKVEIERTVAAPSVFIFPPSDEQLKSGTASVVCLLNNFYPREAKVQWKVDNALQSGNSQESVTEQDSKDSTYSLSSTLTLSKADYEKHKVYACEVTHQGLSSPVTKSFNRGEC |  | 113 % of control | 83.5 % of control |
| GpH7-A5/GpH7-B3 variant T335_02A/GpL16-k0 (antibody, human IgG1, kappa, change in the GpH7-B3 H chain only; also called He Ab) heavy 1: not shown heavy 2: not shown light: DIVMTQSPLSLPVTPGEPASISCQASESLVHSNRNTYLHWYLQKPGQSPQLLIYKVSNRFSGVPDRFSGSGSGTDFTLKISRVEAEDVGVYYCSQNTHVPPTFGQGTKVEIERTVAAPSVFIFPPSDEQLKSGTASVVCLLNNFYPREAKVQWKVDNALQSGNSQESVTEQDSKDSTYSLSSTLTLSKADYEKHKVYACEVTHQGLSSPVTKSFNRGEC |  | 103 % of control | 94 % of control |
| GpH7-B3 variant P271_04F/GpL16-k0 (antibody, human IgG1, kappa, also called Ho Ab P271_04F) heavy: not shown light: DIVMTQSPLSLPVTPGEPASISCQASESLVHSNRNTYLHWYLQKPGQSPQLLIYKVSNRFSGVPDRFSGSGSGTDFTLKISRVEAEDVGVYYCSQNTHVPPTFGQGTKVEIERTVAAPSVFIFPPSDEQLKSGTASVVCLLNNFYPREAKVQWKVDNALQSGNSQESVTEQDSKDSTYSLSSTLTLSKADYEKHKVYACEVTHQGLSSPVTKSFNRGEC | 100 relative binding, control = 100 |  |  |
| GpH7-A5/GpH7-B3 variant T335_12R/GpL16-k0 (antibody, human IgG1, kappa, change in the GpH7-B3 H chain only; also called He Ab) heavy 1: not shown heavy 2: not shown light: DIVMTQSPLSLPVTPGEPASISCQASESLVHSNRNTYLHWYLQKPGQSPQLLIYKVSNRFSGVPDRFSGSGSGTDFTLKISRVEAEDVGVYYCSQNTHVPPTFGQGTKVEIERTVAAPSVFIFPPSDEQLKSGTASVVCLLNNFYPREAKVQWKVDNALQSGNSQESVTEQDSKDSTYSLSSTLTLSKADYEKHKVYACEVTHQGLSSPVTKSFNRGEC |  | 113 % of control | 91.9 % of control |
| GpH7-A5/GpH7-B3 variant S324_20W/GpL16-k0 (antibody, human IgG1, kappa, change in the GpH7-B3 H chain only; also called He Ab) heavy 1: not shown heavy 2: not shown light: DIVMTQSPLSLPVTPGEPASISCQASESLVHSNRNTYLHWYLQKPGQSPQLLIYKVSNRFSGVPDRFSGSGSGTDFTLKISRVEAEDVGVYYCSQNTHVPPTFGQGTKVEIERTVAAPSVFIFPPSDEQLKSGTASVVCLLNNFYPREAKVQWKVDNALQSGNSQESVTEQDSKDSTYSLSSTLTLSKADYEKHKVYACEVTHQGLSSPVTKSFNRGEC |  | 114 % of control | 87.5 % of control |
| GpH7-A5/GpH7-B3 variant S324_15Y/GpL16-k0 (antibody, human IgG1, kappa, change in the GpH7-B3 H chain only; also called He Ab) heavy 1: not shown heavy 2: not shown light: DIVMTQSPLSLPVTPGEPASISCQASESLVHSNRNTYLHWYLQKPGQSPQLLIYKVSNRFSGVPDRFSGSGSGTDFTLKISRVEAEDVGVYYCSQNTHVPPTFGQGTKVEIERTVAAPSVFIFPPSDEQLKSGTASVVCLLNNFYPREAKVQWKVDNALQSGNSQESVTEQDSKDSTYSLSSTLTLSKADYEKHKVYACEVTHQGLSSPVTKSFNRGEC |  | 114 % of control | 88.2 % of control |
| GpH7-A5/GpH7-B3 variant S324_19Q/GpL16-k0 (antibody, human IgG1, kappa, change in the GpH7-B3 H chain only; also called He Ab) heavy 1: not shown heavy 2: not shown light: DIVMTQSPLSLPVTPGEPASISCQASESLVHSNRNTYLHWYLQKPGQSPQLLIYKVSNRFSGVPDRFSGSGSGTDFTLKISRVEAEDVGVYYCSQNTHVPPTFGQGTKVEIERTVAAPSVFIFPPSDEQLKSGTASVVCLLNNFYPREAKVQWKVDNALQSGNSQESVTEQDSKDSTYSLSSTLTLSKADYEKHKVYACEVTHQGLSSPVTKSFNRGEC |  | 112 % of control | 66.8 % of control |
